Data as given in patent US20240409617A1 (published 2024).
Numbering of substitutions follows the chain as printed.

B1: Ab 18 (scFv, V domains shown)
VH: EVQLVQSGGGVVQPGRSLRVSCAASGFSFSRYGMHWVRQAPGKGLEWVAFIRHDGSKKYYADSVEGRFTISRDNSRNTVSLEMNSLRGEDTAVYYCAKDGRLEAALDDWGQGTLVTVSS
VL: NFMLTQPHSMSGSAGKTVTVSCIRSSGSIANNFVQWYQQRPGSAPTTVIYEDNQRPSGVPDRFSGSIDSSSNSASLTISGLKTEDEADYYCQSYDSSNLVFGGGTRLTVL
B2: Ab 16 (scFv, V domains shown)
VH: QVQLVQSGGGVVQPGRSLRLSCAASGFTFSNYGMHWVRQAPGKGLEWVALIWERGSKKDYADSVKGRFTVSRDNSKNTLYLQMNSLRPEDTAVYFCAREGISMTGAEYFQHWGQGTLVTVSS
VL: QSVLTQPPSVSGSPGQRVTMSCTGSSSNIGAGYDVHWYQQVPGAAPRLLIYGTNNRPSGVPDRFSGSKSGTSASLTITGLQAEDEADYYCQSYDNSLTDPYVFGTGTKVTVL
B3: Ab 29 (scFv, V domains shown)
VH: QVQLQQSGPGLVKPSQTLSLTCAISGDSVSSYSDAWNWIRQSPSRGLEWLGRTYYRSKWYNDYAVSVKSRITINPDTSKNQFSLQLSSVTPEDTAVYYCAREIVATTPFRNYYYGMDVWGQGTTVTVSS
VL: NFMLTQPHSVSESPGNTVTISCTRTSGSIASNYVQWYQQRPGSSPTTVIFQDKLRPSGVPDRFSGSIDSSSNSASLTISGLKTEDEADYYCQSYDSSSLWVFGGGTKLTVL
B4: Ab 39 (scFv, V domains shown)
VH: QVTLKESGPTLVKPTQTLTLTCTLSGVSLDTIGMRVSWIRQPPGKALEWLARIDWDDDKFYSTALKTRLTISKDTSKNQVVFTMTSMDPVDTATYYCARSGLLYDLDVWGRGTLVTVSS
VL: QSVVTQPPSVSGAPGQRVTISCTGSDSDIGANFVQWYQQLPGTAPKLLIWRNTNRPSGVPDRFSASKSGTSASLAITGLQAEDEADYFCQSYDSSLSAYVFGGGTKVTVL
B5: Ab 31 (scFv, V domains shown)
VH: QVQLVQSGAEVKKPGSSVKVSCKASGGTFSSYTISWVRQAPGQGLEWMGGIIPILGTPNYAQKFQDRVAITADKSTSTAYMELSSLRSEDTAVYYCAVGSGWYSGFDYWGQGTLVTVSS
VL: NFMLTQPHSVSESPGKTVTISCTGSSGSIASNYVQWYQQRPGSAPTTVIYEDSQRPSGVPDRFSGSIDSSSNSASLTISGLKTEDEADYYCQSFHNSNPVIFGGGTKLTVL
B6: Ab 13 (scFv, V domains shown)
VH: QVTLKESGPKLVKPTQTLTLTCTFSGFSLSTSGVGVGWIRQPPGKALEWLALIYWDDDKRYSPSLKSRLTIAKDTSKYQVVLTMTNMDPVDTATYYCARISGSGYFYPFDIWGQGTMVTVSA
VL: B5 VL with G24R, S53N, F94Y, H95D, N96S, P99L, V100W, I101V
B7: Ab 20 (scFv, V domains shown)
VH: QVQLVQSGGGSVKPGGSLRLSCAASGYRLSDYYMHWVRQAPGKGLEWVANIKQDGSEKYYVDSVKGRFTISRDNAKNSLYLQMNSLRAEDTAVYYCARVRGWSRGYFDYWGQGTLVTVSS
VL: B5 VL with S53N, T77L, F94Y, H95D, N96S, P99H, V100W, I101V
B8: Ab 21 (scFv, V domains shown)
VH: QVQLVQSGGGLVQPGGSLRLSCATSGFTFDDYAMHWVRQAPGKGLEWVSGISWNSGSIGYVDSVKGRFTISRDNRNNKVYLQMNNLRAEDTAVYYCARDWWGSIDHWGLGTLVTVSS
VL: QSALTQPRSVSGSPGQSVTISCTGTSSDVGGYDYVSWYQQHPGKAPKLIIYDVSKRPSGVPDRFSGSKSGNTASLTVSGLQAEDEADYYCSSYTSSSPVVFGGGTKLTVL
B9: Ab 36 (scFv, V domains shown)
VH: QVQLQQSGPGLVKPSQTLSLTCAIFGDSVTSNSAAWNWIRQSPSRGLEWLGRTYYSSKWYNDYAVSVKSRVTINADTSKNQLSLQLNSVTPEDTAVYYCARGWLRLSFDPWGQGTLVTVSS
VL: NFMLTQPHSVSESPGKTVTISCTGSSGSIASNYVQWLQQRLGSAPTTVIYEDNQRPSGVPDRFSGSIDSSSNSASLTISGLKTEDEADYYCQSYDPNNHGVVFGGGTKLTVL
B10: Ab 32 (scFv, V domains shown)
VH: QVQLVQSGAEVKKPGESLKISCKGSGYSFTSYWIGWVRQMPGKGLEWMGIIYPGDSDTRYSPSFQGQVTISADKSISTAYLQWSSLKASDTAMYYCARGWQWHDYWGQGTLVTVSS
VL: QTVVTQEPAVSVALGQTVRITCQGDSLRSYYASWYQQKPGQAPVLVVYDKDKRPSGIPDRFSGSTSGNTASLTITGAQAEDEADYYCNSRDRSDNHVVFGGGTKLTVL
B11: Ab 37 (scFv, V domains shown)
VH: QVQLVQSGAEVKKPGASVKVSCKASGYTFTSYGISWVRQAPGQGLEWMGWISTYNGNTNYAQKLQGRVTMTTDTSTSTAYMEVRSLRSDDTAVYYCARDVFGHFDYWGQGTLVTVSS
VL: NFMLTQPHSVSESPGKTVLISCTRSSGNIATNYVQWYQQRPGSAPTTVIYEDNQRPSGVPDRFSGSIDSSSNSASLTISGLKTEDEADYYCKSYDDGNHVFGGGTKLTVL
B12: Ab 8 (scFv, V domains shown)
VH: QVQLVQSGAEVKKPGSSVKVSCKASGGTFSSYAISWLRQAPGQGLEWMGWINPNSGGTNYAQKFQGRVTMTRDTSISTAYMELSRLRSDDTAVYYCARGSGGYYLGWGQGTLVTVSS
VL: QPGLTQPPSVSKGLRQTATLTCTGNSNNVGNQGAAWLQQHQGHPPKLLSYMNNNRPPGISERFSASRSGNTASLTITGLQPEDEADYYCSAWDSSLSRWVFGGGTKLSVL
B13: Ab 17 (scFv, V domains shown)
VH: QVQLVQSGGGVVQPGRSLRLSCAASGFTFDDYAMHWVRQVPGKGLEWVSGIDWNSGVIGYADSVKGRFTISRDNVKNSLYLQMNSLRTEDSALYYCAKDIGPGGSGSYYAFDIWGQGTTVTVSS
VL: QSALTQPASVSGSPGQSITISCTGTSSDVGGSKYVSWYQQHPGKAPKVMIYDVTKRPSGVPDRFSGSKSGNTASLTISGLQAEDEADYYCAAWDDSLNGVVFGGGTKLTVL
B14: Ab 34 (scFv, V domains shown)
VH: QVQLVQSGVEVKKPGESLKISCKGSGYSFTSYWIGWVRQMPGKGLEWMGIIYPGDSDTRYSPSFQGQVTISADKSISTAYLQWSSLKASDTAMYYCARTTYSYGSFDYWGQGTLVTVSS
VL: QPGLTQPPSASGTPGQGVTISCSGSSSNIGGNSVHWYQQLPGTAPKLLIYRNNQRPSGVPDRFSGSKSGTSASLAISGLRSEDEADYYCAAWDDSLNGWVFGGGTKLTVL
B15: Ab 38 (scFv, V domains shown)
VH: QVTLKESGPTLVKPTQTLTLTCTFSGFSLTTSGVSVGWIRQPPGKALEWLALIHWDDDKRYSPSLRSRLTITRDTSKNQVVLTVTDMDPADTGTYYCASFIMTVYAEYFEDWGQGTLVTVSS
VL: EIVLTQSPATLSVSPGERATLSCRASQSVSSNLAWYQQKPGQAPRLLMYDVSTRATGIPARFSGSGSGTEFSLTISSLQSEDFAVYYCQQRGAWPLTFGGGTKVEIK

These binders were tested against S1 (assay: BLI).

Binder	Kd [nM]
B1	0.121
B2	2.18
B3	< 0.001
B4	< 0.001
B5	2040
B6	1.14
B7	5.01
B8	1.28
B9	0.0306
B10	0.168
B11	0.907
B12	325
B13	0.716
B14	0.184
B15	0.22

These binders were tested against S1-biotin(ACRO) (assay: BLI).

Binder	Kd [nM]
B1	0.121
B2	2.18
B6	1.14
B7	5.01
B8	1.28
B13	0.716
